Assay results published in a protein production outcome set (Wang et al. 2014).

Assay: label from the status in PepcDB records

Sequence | protein production
MSKKVIADVFLEVANAIESGEFGKKVKIGVTTLGSEHGVENMVNGAQLAKSNLFDIVLIGPKVETDLEVVEVNDEKEMHAKMEELLDSGYIDACVTMHYNFPIGVSTVGRVITPAKGKEMILATTTGTSATNRIEAMVRNAIYGIATAKSMGNKCPKVGILNVDGARQVEKCLKELKDNGYDMEFADSIRADGGCVMRGNDLLVGAPDVMVTDTLSGNIFMKVFSSYTTGGDYEAQGFGYGPGVGEDYDRKVLIVSRASGSPVVANALKYAYDVVKGDISNVARNEFAKVKKAKFDDIISSLTKKEVKAEKVEVKMPDKEIVTRQIAGVDIMDLEDAVSELWKNGIYAESGMGCTGPIVLVNEAKGDLAVETLVKAGYTAK | failed
MSKLIVPQWPQPKGVAACSSTRIGGVSLPPYDSLNLGAHCGDNPDHVEENRKRLFAAGNLPSKPVWLEQVHGKDVLKLTGEPYASKRADASYSNTPGTVCAVMTADCLPVLFCNRAGTEVAAAHAGWRGLCAGVLEETVSCFADNPENILAWLGPAIGPRAFEVGGEVREAFMAVDAKASAAFIQHGDKYLADIYQLARQRLANVGVEQIFGGDRCTYTENETFFSYRRDKTTGRMASFIWLI | not failed
MSKLSIRNLTKIFGPHPEKALGLLEQGLGKEEIHRRTSHAVGVDRASFDVEEGEIVVVMGLSGSGKSTLVRCLNRLIEPTAGTVTVDGRDVTSMPVDELRRLRQRSFGMVFQNFALFPHRTVLQNAAFGLEAMGVPRAERERQAMVSLERVGLAEWAASRPAQLSGGMQQRVGLARALSLDPDILLMDEAFSALDPLIRRDMQDELLRLQDDLQKTIVFISHDLDEALKLGDRIVLMRDGAVVQIGTPEDILTNPADDYVARFVGEADVTKVLTAGSVMKRSEAVAVLGIDGPRTALRKMRRNAIATLFVLDERHRLVGLITADDAARLAAEGVRELGSIVRRDIATVPPEAPATELISLMADLPHPLAVVDERGRLAGVIVRGLLLGALAERGGVALEHHHHHH | not failed
MSKNIGLNAIEMSYLRQSLSLSAAQVGQLTNHSEAEVLAWENAETQAPELAQKKLLDIDDIIEMQVLNTTDGIEALFKKEPKRHLAFVVYPTQAIYTQYNPEFLSSLPLTELYNTAAWRIKKECKLVLEVDVSLINLNVEAYKAYREQNGLSESRESRAKWAATQL | not failed
MSKNYQVLAKKIIDIVGVDNVESVTHCQTRLRFVVKDPKQIDKAALEDLDEVKGVFFGSGQYQVIIGTGVVNDVYDAIEKLHLVNAIYSQETTTTPTPDNQKSPLQRFMAMLSGIFIPIIPVIAATGLFLGLQSALTNNQVLQLFGTSSAAIPASLNTVISVLTGTVFSFLPALIVWSTFRYFKGTPIVGIVIGLMLVSPSLPNAYSVAGGTAKAIMLFDRIPVIGSQGSVLTALVAGFLGSKLEHYFHKHVPNVLDQILTPFLTMLVTFGIMILGVGPVVHWIENVMISGVEGLINLPFGIGGFLIGAAYPLMVLVGIHQMMIAIETSLLAATKLNPLITLEAMYGFANLGVALAMILRAKSQKAKANFIGAFSSQLFGVSEPTLFGVLIRYNFKPLVVTVLTSGIGAGVLSVMSVAANSYGLAVVPSYLMYIYNVRDLLIYTVVSLLTVAVAFIATNMFAIPKDILKSDQVQPKIVDDTIFSPVSGKSIALSTVNDPVFASKMMGDGIAIKPQEQGPVKVYAPQSGQMSVVADTGHAYGLTTNNGVELLIHIGIDTVSLKGQGFKVIVKPGQTVQKGDLLGEFDSTVLKAANLDDTVMVIVTNSKNYQRIESEPNQSIQSGAALLAIQGRPEMTTATAS | failed
MSKPFMFEKPFGMRDTLPEWYKTKKNICDQMTEEINLWGYDMIETPTLEYYETVGVVSAILDQQLFKLLDQQGNTLVLRPDMTAPIARLVASSLKDRAYPLRLAYQSNVYRAQQNEGGKPAEFEQLGVELIGDGTASADGEVIALMIAALKRAGLSEFKVAIGHVGYVNALLMDVVGNEQRADRLRRFLYEKNYVGYREHVKSLNLSTIDKSRLMNLLSLRGGRAAIEEARGLIQTEKGKTALAEMTKLYEVLESYGASEYVKFDLTLVLHMSYYTGVVFEGYGNRLGVPLCSGGRYDELLSKFHRPAQATGFGVRIDLLVEALNGEIISNGHEQTCILFSNERRFEAIELARKKRANGEAVVLQDLAGVTDVDAMSSNYQDVIYCIGTAGRGGEDA | not failed
MSKPGTPKHGAGSSSAAAAPEKISKYNISTEKCGDLTVIVQGDLSQQEKRAVFITVHDLGCNHNSFQEFVSSPCMTEIKERSCFIHVDVPGHADNAEALADGFPFPSLQSLGEDLVTVLDYLHVKYVIGLGEGAGANVLARFGLAHPSRVLGLILINATGSAASVVQSFKNKFISWKSDEVAQSAESFLMYHKFGHQIVGENPDKEKIVAEYQKRLHRSLNSKNIGLYVKAFMNRKDLTLKGCKVDVILITGMLSPYASMVEKLHRDVEKERVTILKIERAGDVLADAPGKVAQSILLFCKGQGLLTSVVMPGVDRGRAFSTASSGSLEGANGSRRLSRGISMEDYDKPNIRRLSIMNSELPKKE | failed
MSKPHALRGVLANLISESQSPLTPESIIREFRATSDRRLPACDLIKVLVSISEKRPNFAEVTKEISHILQNKDPMYALLVFVERYSECKPVSESSSSTSLSAMGLPHGNKTSDVNSAAGSVPTTLAIASTSTILTTSQNVSGSTRLSLTQSQDFPTSTPVNCKKATESDTTPVVFVRRGPMDRNRGAGKDERNDLSVIKERVLNAVSDQSLSGYRSVTNKTGNSPKSMPNDLVTLTDVPDEYRTHLLWEYYKVDGDKVPRAEIAAMPLLSQESMLLDELLHCLTGIRESLLVPQKPIISAVGLAKYDTDFDIHTHLDRSLTHQVREILPLASYFMGVQKIIAATDGLGQVMNSLNEALQELTHDFYLIIVQAEQELRHNRLTLQKLLYYLQPTMWVMHEVWSSLVIIQLSDSRDAEVLTYLHERIKRLEGNKDAQQLIIGLVRKAAKPYMRMLQMWIQKGVIVDRHREFLVVDNEVIHRDELPEHYSDDYWERRYTLRDEQIPSFLAKYSDKILRTGKYLNVIRQCGKRVMPTQEMNLEFDPTSERHVSVINDAYYFAARMLLDVLLTENDLMGHLQSVKRYLLLNQGDFTMQFMDACEDELTKNVDHVLPMTLENLLGLTLRISSARNDPYKDDLHCELLPYDLVTQMSKIMKKEENWQAQPRLDLSGLECFAFTYEVKWPCSLVLNHISISKYQMLFRQLFYCKHVERQLCKIWKENSIARQFEPQAASLYRAAFTLRQRMMNAIQNLEYYMMIEIIEPNWHIFIEKMKTVENVDNVLRLHQDFLDSCLKNCMLTESSHLNRSIFKLCKICLKYCEFIQITQRYFQDAELRSMVRDSADSSESEQESLHCPQIETPLDPTDTFSERVRRFDLEFTQLLISFLKQINSMAKKNTADCFMNLVHRINFNAFYTDQMDKMCVEDAIG | failed
MSKPPLFFIIIIALIVVAASFRFVQQRREKAANEAAPLQQKQVVVSNKREKPVNDRRSRQQEVIPAGTSMRYEVSFKPLNGGLEKTFRLQAQQYHALTVGDQGTLSYKGTRFVGFVSRTPDNE | failed
MSKQIPVQDVTPPAKGDTNNNDLYAKREKIYTRAFTGIFRRLRMVGGAALFLLYFGTVWLNWSGRQAVWWDLPERKFYIFGATFWPQDFMLLSWLLIVCAFGLFFITVFAGRVWCGYTCPQSVWTWIYMWCEKVTEGDRNQRIKLDKAPMSGNKLLRKTAKHSLWLLIGLVTGLTFVGYFSPIRELIPELLTGQADGWAYFWVGFFTLATYGNAGWLREQVCIYMCPYARFQSVMFDKDTLIVSYDPRRGEKRGPRKKSLDYKAQGLGDCIDCTMCVQVCPTGIDIRDGLQIECIGCAACIDACDSIMEKMNYPKGLISYTTEHNLNGQKTHLARPRLIGYAIALVLMISALITAVVLRPLVGFDVSKDRVLYRENELGRIENVYSLKIMNKDQQDHTYILGAKGLEGLTLEGRRELKVAAGDILNLPMELSIEPEKLPSTTNEIVFTIESADDPSIHKEAKSRFIGPRTR | failed
MSKQSVKKIISFSLTIIIAIVMLGLLKNLFSQSDDKALSEAIRNGAFLVDVRTPGEFASGSVAGAVNIPLDRIASRLNELKNKKTIIVFCRSGNRSSQAKSILERNGFSNVLDGGTWGHVASLKGDQ | failed
MSKRANKLVIVTEKVLLKKVAKIIEEAGATGYTVVDTGGKGSRNVRSTGKPNTSDTDSNVKFEVLTENREMAEKIADQVAIKFFTDYAGIIYICEAEVLYGRTFCGPDGC | not failed
MSKSEEKQELPLETSPYTKYEDIEDYKKNAYGTSGHQDVKPGHGGGTTDAPTPSGDAAPSAIDSANQKAKK | failed
MSLAADSADAGFARDMSVHHQQAVEMSYIVRDRTDDEEVRRLAYDIAQTQANQRGMMIGWLDLWALPKVSSDPPMTWMGMGDAPSAGEGSLMPGMATDAEMKKLGTLDGKQAEVYYLQLMTEHHRGGVHMAKGCVERCTVGVEKRLARGMVESQESEIRLMADLLAERGAKEGHHHHHH | not failed
